# Assay results from patent US20080311122A1, “Antagonists of Hmgb1 and/or Rage and Methods of Use Thereof” (Medimmune, LLC, priority 2005, published 2008).
# Tests used:
# [1] = target: HMGB1 in DNA immune complexes of human lupus plasma (human) (UniProt P09429); assay: cell-based or functional assay
# [2] = target: HMG1 purified from bovine (calf) thymus (bovine) (UniProt P10103); assay: cell-based or functional assay
# Sequence of HMG1 purified from bovine (calf) thymus (bovine) (P10103 2-215 limits assumed): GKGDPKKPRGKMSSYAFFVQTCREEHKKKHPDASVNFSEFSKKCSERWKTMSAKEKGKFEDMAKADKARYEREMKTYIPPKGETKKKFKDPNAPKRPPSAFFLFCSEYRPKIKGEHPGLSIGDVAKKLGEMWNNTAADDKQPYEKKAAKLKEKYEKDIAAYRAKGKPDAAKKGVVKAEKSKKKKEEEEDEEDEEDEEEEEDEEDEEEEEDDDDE
# Sequence of HMGB1 in DNA immune complexes of human lupus plasma (human) (P09429 whole entry, one chain of several): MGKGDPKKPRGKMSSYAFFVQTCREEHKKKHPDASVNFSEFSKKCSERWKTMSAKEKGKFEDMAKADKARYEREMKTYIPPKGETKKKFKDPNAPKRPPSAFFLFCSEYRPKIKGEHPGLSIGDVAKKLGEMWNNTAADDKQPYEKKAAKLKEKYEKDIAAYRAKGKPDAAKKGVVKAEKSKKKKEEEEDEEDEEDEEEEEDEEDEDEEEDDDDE
substance,measurement,setting,value
RAGE-Fc fusion protein (species not stated),decrease in IFIT1 mRNA in human PBMC stimulated with 20% lupus plasma,[1],75%
same,"IFN-a release from mouse bone marrow cells, HMGB/CpG-A mediated enhanced TLR9 signaling",[2],> 95%
